Reference: patent publication US20210079060A1

Columns and labels:
[1] = target: CD19-scFvHER2 (FIG. 15A); test: flow cytometry, yeast display, right panel; FMC63 + GaM-A647 (FL4-A) against biotin-HER2 + strep-A488 (FL1-A); Q8 30.1 also printed
[2] = target: CD19-FnEGFR (FIG. 15A); test: flow cytometry, yeast display, left panel; FMC63 + GaM-A647 (FL4-A) against biotin-EGFR + strep-A488 (FL1-A)
[3] = target: CD19-FnEGFR (FIG. 15A); test: flow cytometry, yeast display, left panel; FMC63 + GaM-A647 (FL4-A) against biotin-EGFR + strep-A488 (FL1-A); Q8 64.9 also printed
[4] = target: CD19-scFvHER2 (FIG. 15A); test: flow cytometry, yeast display, right panel; FMC63 + GaM-A647 (FL4-A) against biotin-HER2 + strep-A488 (FL1-A)
[5] = target: yeast-displayed wild-type CD19 (extracellular domain) (human) (UniProt P15391); test: flow cytometry, yeast display, CD19-Aga2p, 22 °C pre-treat; mAb binding against CD19 per yeast
[6] = target: yeast-displayed wild-type CD19 (extracellular domain) (human) (UniProt P15391); test: flow cytometry, yeast display, Aga2p-CD19, 22 °C pre-treat; mAb binding against CD19 per yeast

Sequence of yeast-displayed wild-type CD19 (extracellular domain) (human) (P15391 20-291): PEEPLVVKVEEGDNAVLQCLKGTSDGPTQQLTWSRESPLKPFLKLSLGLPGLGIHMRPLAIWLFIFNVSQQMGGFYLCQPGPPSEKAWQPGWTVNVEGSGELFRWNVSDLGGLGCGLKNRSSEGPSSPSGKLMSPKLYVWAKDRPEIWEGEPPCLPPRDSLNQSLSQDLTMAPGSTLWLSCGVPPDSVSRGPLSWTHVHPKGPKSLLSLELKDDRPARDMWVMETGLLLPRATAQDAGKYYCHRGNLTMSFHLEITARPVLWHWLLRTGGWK

Row | Q5, percent of events positive for FMC63 and negative for biotin-target [1] | Q6, percent of events positive for FMC63 and biotin-target [2] | Q5, percent of events positive for FMC63 and negative for biotin-target [3] | Q6, percent of events positive for FMC63 and biotin-target [4] | percent of yeast in gate R8 (CD19-displaying, no mAb signal; taken as the lower dashed gate) [5] [%] | percent of yeast in gate R7 (CD19-displaying, no mAb signal; taken as the lower dashed gate) [6] [%] | Substance
1 | 31.8 | 0.034 | 35.1 | 35.1 |  |  | FMC63 (antibody)
2 |  |  |  |  | 51.6 | 37.2 | 4G7 (antibody)
